Data set [1] addresses T1, DEVD-amc (Acetyl-Asp-Glu-Val-Asp-aminomethylcoumarin).
T1 chain: DEVD

Data set [2] addresses T2, membrane derived procaspase-3, P42574.
T2 chain: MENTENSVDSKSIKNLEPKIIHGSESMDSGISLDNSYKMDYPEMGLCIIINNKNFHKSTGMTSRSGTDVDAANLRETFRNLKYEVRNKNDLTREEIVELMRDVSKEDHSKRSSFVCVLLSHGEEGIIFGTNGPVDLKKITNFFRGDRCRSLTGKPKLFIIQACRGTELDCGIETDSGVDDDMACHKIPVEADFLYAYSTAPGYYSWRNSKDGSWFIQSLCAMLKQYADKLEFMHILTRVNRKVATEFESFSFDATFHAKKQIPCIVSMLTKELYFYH

B1: r-caspase-3 (His)6 (protein)
chain 1: SGISLDNSYKMDYPEMGLCIIINNKNFHKSTGMTSRSGTDVDAANLRETFRNLKYEVRNKNDLTREEIVELMRDVSKEDHSKRSSFVCVLLSHGEEGIIFGTNGPVDLKKITNFFRGDRCRSLTGKPKLFIIQACRGTELDCGIETD
chain 2: SGVDDDMACHKIPVEADFLYAYSTAPGYYSWRNSKDGSWFIQSLCAMLKQYADKLEFMHILTRVNRKVATEFESFSFDATFHAKKQIPCIVSMLTKELYFYHHHHHHH
For B1, the “kcat/KM for DEVD-AMC hydrolysis” value in data set [1] is “the kcat/KM value for the recombinant caspase-3 (1,200,000 M^-1sec^-1)”.

B2: affinity purified membrane derived caspase-3 from 697 cell heavy membranes (protein)
chain 1: KNLEPKIIHGSESMDSGISLDNSYKMDYPEMGLCIIINNKNFHKSTGMTSRSGTDVDAANLRETFRNLKYEVRNKNDLTREEIVELMRDVSKEDHSKRSSFVCVLLSHGEEGIIFGTNGPVDLKKITNFFRGDRCRSLTGKPKLFIIQACRGTELDCGIETD
chain 2: SGVDDDMACHKIPVDADFLYAYSTAPGYYSWRNSKDGSWFIQSLCAMLKQYADKLEFMHILTRVNRKVATEFESFSFDATFHAKKQIPCIVSMLTKELYFYH
Turning to B2, in data set [1], the “KM for DEVD-AMC hydrolysis” value is given as “The observed KM value for the purified caspase (10 uM)” and the “kcat/KM for DEVD-AMC hydrolysis” value is “must be >=400,000 M^-1sec^-1”.

B3: recombinant murine caspase-1 (protein)
chain: NKEDGTFPGLTGTLKFCPLEKAQKLWKENPSEIYPIMNTTTRTRLALIICNTEFQHLSPRVGAQVDLREMKLLLEDLGYTVKVKENLTALEMVKEVKEFAACPEHKTSDSTFLVFMSHGIQEGICGTTYSNEVSDILKVDTIFQMMNTLKCPSLKDKPKVIIIQACRGEKQGVVLLKDSVRDSEEDFLTDAIFEDDGIKKAHIEKDFIAFCSSTPDNVSWRHPVRGSLFIESLIKHMKEYAWSCDLEDIFRKVRFSFEQPEFRLQMPTADRVTLTKRFYLFPGH
Regarding B3, in data set [2], the “activation of DEVD-AMC hydrolysis activity in heavy membranes” value is given as “Treatment with recombinant caspase-1 causes a rapid, robust activation of the membrane caspase” and the “time course of activation of DEVD-AMC hydrolysis activity” value is reported as “The lack of a detectable time lag in the time course plot”.

The values above are taken from US20020197702.
